Data reported in patent publication US20240209094A1 (PIERRE FABRE MEDICAMENT, published 2024).
Where “and” joins values, the source holds several entries; their conditions need not be identical. Equal entries are not always repeated.

T1: hVISTA-Fc labelled with d2 (human, UniProt Q9H7M9 33-194, labelled with d2 (HTRF acceptor); site not stated)
T1 construct: It may be the same protein as rhVISTA-Fc of the Biacore assay, with a d2 label; also called VISTA-Fc-d2; not shown: Fc
T1 sequence: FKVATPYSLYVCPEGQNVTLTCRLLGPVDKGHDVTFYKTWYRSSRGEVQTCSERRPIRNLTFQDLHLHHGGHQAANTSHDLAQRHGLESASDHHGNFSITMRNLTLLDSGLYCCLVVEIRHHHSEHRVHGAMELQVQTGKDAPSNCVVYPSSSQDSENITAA

T2: recombinant human (rh) VISTA-His protein (human, UniProt Q9H7M9 33-194)
T2 construct: A soluble His-tagged protein is probably the extracellular domain; also called rhVISTA-TagHis; rhVISTA-his (monomer); not shown: His tag
T2 sequence: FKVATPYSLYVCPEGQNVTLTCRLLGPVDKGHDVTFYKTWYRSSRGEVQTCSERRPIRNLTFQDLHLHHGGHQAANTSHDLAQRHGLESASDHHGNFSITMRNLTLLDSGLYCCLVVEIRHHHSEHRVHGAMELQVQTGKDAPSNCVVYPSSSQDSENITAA


Key:
[1] = target: T1, hVISTA-Fc labelled with d2; assay: HTRF, VISTA-Fc-d2 and PSGL1-His/anti-His-Tb, pH 6; antibody at 5 µg/mL; mean of 3 experiments
[2] = target: T1, hVISTA-Fc labelled with d2; assay: HTRF, VISTA-Fc-d2 and PSGL1-His/anti-His-Tb, pH 6; antibody at 0.63 µg/mL; mean of 3 experiments
[3] = target: T1, hVISTA-Fc labelled with d2; assay: HTRF, VISTA-Fc-d2 and PSGL1-His/anti-His-Tb, pH 6; antibody at 0.31 µg/mL; mean of 3 experiments
[4] = target: T1, hVISTA-Fc labelled with d2; assay: HTRF competition, VISTA-Fc-d2 and PSGL1-His/anti-His-Tb, pH 6
[5] = target: T1, hVISTA-Fc labelled with d2; assay: HTRF, VISTA-Fc-d2 and PSGL1-His/anti-His-Tb, pH 6; antibody at 2.5 µg/mL; mean of 3 experiments
[6] = target: T1, hVISTA-Fc labelled with d2; assay: HTRF, VISTA-Fc-d2 and PSGL1-His/anti-His-Tb, pH 6; antibody at 0.16 µg/mL; mean of 3 experiments
[7] = target: T1, hVISTA-Fc labelled with d2; assay: HTRF, VISTA-Fc-d2 and PSGL1-His/anti-His-Tb, pH 6; antibody at 1.25 µg/mL; mean of 3 experiments
[8] = target: T1, hVISTA-Fc labelled with d2; assay: HTRF, VISTA-Fc-d2 and PSGL1-His/anti-His-Tb, pH 6; antibody at 10 µg/mL; mean of 3 experiments
[9] = target: T2, recombinant human (rh) VISTA-His protein; assay: indirect ELISA, rhVISTA-His captured by coated anti-His antibody; experiment n1
Protocol: (§1) After incubation, the coating solution was removed and plates were blocked by adding 250 μl blocking buffer (0.5% gelatin in 1×PBS) for at least 1 hour at 37° C.

[10] = target: T2, recombinant human (rh) VISTA-His protein; assay: indirect ELISA, rhVISTA-His captured by coated anti-His antibody; mean EC50 of n1-n3
Protocol: as §1

[11] = target: T2, recombinant human (rh) VISTA-His protein; assay: direct ELISA, rhVISTA-His coated on plate; experiment n1
Protocol: as §1

[12] = target: T2, recombinant human (rh) VISTA-His protein; assay: indirect ELISA, rhVISTA-His captured by coated anti-His antibody; experiment n3
Protocol: as §1

[13] = target: T2, recombinant human (rh) VISTA-His protein; assay: direct ELISA, rhVISTA-His coated on plate; Mean EC50 'Prism' n = 3
Protocol: as §1

[14] = target: T2, recombinant human (rh) VISTA-His protein; assay: direct ELISA, rhVISTA-His coated on plate; mean EC50 of n1-n3
Protocol: as §1

[15] = target: T2, recombinant human (rh) VISTA-His protein; assay: direct ELISA, rhVISTA-His coated on plate; experiment n2
Protocol: as §1

[16] = target: T2, recombinant human (rh) VISTA-His protein; assay: direct ELISA, rhVISTA-His coated on plate; experiment n3
Protocol: as §1

[17] = target: T2, recombinant human (rh) VISTA-His protein; assay: indirect ELISA, rhVISTA-His captured by coated anti-His antibody; experiment n2
Protocol: as §1

[18] = target: T2, recombinant human (rh) VISTA-His protein; assay: indirect ELISA, rhVISTA-His captured by coated anti-His antibody; Mean EC50 'Prism' n = 3
Protocol: as §1

| percentage of the specific HTRF signal [1] [%] | percentage of the specific HTRF signal [2] [%] | percentage of the specific HTRF signal [3] [%] | IC50 [4] [nM] | percentage of the specific HTRF signal [5] [%] | percentage of the specific HTRF signal [6] [%] | percentage of the specific HTRF signal [7] [%] | percentage of the specific HTRF signal [8] [%] | EC50 [9] | EC50 [10] | EC50 [11] | EC50 [12] | EC50 [13] | EC50 [14] | EC50 [15] | EC50 [16] | EC50 [17] | EC50 [18] [nM] | Molecule |
| --- | --- | --- | --- | --- | --- | --- | --- | --- | --- | --- | --- | --- | --- | --- | --- | --- | --- | --- |
| 50 | 81 | 88 | 333 | 63 | 89 | 68 | 34 | – | – | – | – | – | – | – | – | – | – | anti-VISTA R&D Systems #71261 (antibody) |
| – | – | – | 2.3 | – | – | – | – | 0.0501 nM | 0.0471 nM | 1.04 nM | 0.0465 nM | 1.02 nM | 1.02 nM | 1.08 nM | 0.928 nM | 0.0447 nM | 0.0471 | anti-VISTA antibody Ab1 (N55D substitution in the CDR-H2) (antibody, human IgG1, kappa, V domains shown, N-terminal glutamine mainly in the pyroglutamic acid form; N-glycan at Asn298; most of the C-terminal lysines clipped, also called anti-VISTA Ab1) VH: QVQLVQSGAEVKKPGASVKISCKASGFSFTGYTMNWVRQAPGQGLEWIGLISPYDGGTSYAQKFQGRATLTVDTSTSTAYMELSSLRSEDTAVYYCARRAYGYAMDYWGQGTLVTVSS VL: EIVLTQSPATLSLSPGERVTMSCSASSSVSYMYWYQQKPGQAPRLLIYDTSNLASGVPARFSGSGSGTDYTLTISSMEPEDFAVYYCQQWSSYPFTFGQGTKLEIKR |
| – | – | – | – | – | – | – | – | 0.0458 nM and 0.0382 nM | 0.0396 nM and 0.0393 nM | 0.641 nM and 1.1 nM | 0.0386 nM and 0.038 nM | 0.959 nM and 0.671 nM | 0.671 nM and 0.961 nM | 0.728 nM and 0.877 nM | 0.645 nM and 0.901 nM | 0.0342 nM and 0.0418 nM | 0.0393 | monoclonal antibody Ab3 (unmutated antibody) (antibody, human IgG1, kappa, V domains shown, partly deamidated at N55 (mixture of N55/N55, N55/D55 and D55/D55 charge variants), The batch is kept in the printed label of each row; also called Ab 3 batch 1; Ab 3 batch 2) VH: QVQLVQSGAEVKKPGASVKISCKASGFSFTGYTMNWVRQAPGQGLEWIGLISPYNGGTSYAQKFQGRATLTVDTSTSTAYMELSSLRSEDTAVYYCARRAYGYAMDYWGQGTLVTVSS VL: EIVLTQSPATLSLSPGERVTMSCSASSSVSYMYWYQQKPGQAPRLLIYDTSNLASGVPARFSGSGSGTDYTLTISSMEPEDFAVYYCQQWSSYPFTFGQGTKLEIKR |
